According to patent US20160009798A1:

Tests used:
[1] = target: human oncostatin M (OSM), in-house recombinant, mammalian-cell derived (human) (UniProt P13725); assay: cell-based or functional assay
[2] = target: human oncostatin M (OSM), in-house recombinant, mammalian-cell derived (human) (UniProt P13725); assay: SPR competition, human OSM captured on immobilized M54 (competitor), sample injected at 300 nM
[3] = target: human oncostatin M (OSM), in-house recombinant, mammalian-cell derived (human) (UniProt P13725); assay: SPR competition, human OSM captured on immobilized M64 (competitor), sample injected at 300 nM, second chip
[4] = target: human oncostatin M (OSM), in-house recombinant, mammalian-cell derived (human) (UniProt P13725); assay: SPR competition, human OSM captured on immobilized M2 (competitor), sample injected at 300 nM, second chip
[5] = target: human oncostatin M (OSM), in-house recombinant, mammalian-cell derived (human) (UniProt P13725); assay: SPR (Biacore 3000), mAb captured by anti-Fc, OSM as analyte
[6] = target: Cynomolgus monkey (Macaca fascicularis) oncostatin M, in-house recombinant (Cynomolgus monkey (Macaca fascicularis)); assay: as above
Sequence of Cynomolgus monkey (Macaca fascicularis) oncostatin M, in-house recombinant (Cynomolgus monkey (Macaca fascicularis)) (P13725 other isoform, or with tags, fused parts or gaps limits assumed): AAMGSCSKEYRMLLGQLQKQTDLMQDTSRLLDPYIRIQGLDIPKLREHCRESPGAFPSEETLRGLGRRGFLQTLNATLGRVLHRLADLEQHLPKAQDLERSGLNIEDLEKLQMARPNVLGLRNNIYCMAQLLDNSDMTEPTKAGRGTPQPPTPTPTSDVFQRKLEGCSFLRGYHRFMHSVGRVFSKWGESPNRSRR

[7] = target: human oncostatin M (OSM), in-house recombinant, mammalian-cell derived (human) (UniProt P13725); assay: SPR competition, human OSM captured on immobilized M69 (competitor), sample injected at 300 nM
[8] = target: human oncostatin M (OSM), in-house recombinant, mammalian-cell derived (human) (UniProt P13725); assay: SPR competition, human OSM captured on immobilized M71 (competitor), sample injected at 300 nM
[9] = target: human oncostatin M (OSM), in-house recombinant, mammalian-cell derived (human) (UniProt P13725); assay: SPR competition, human OSM captured on immobilized M2 (competitor), sample injected at 300 nM
[10] = target: human oncostatin M (OSM), in-house recombinant, mammalian-cell derived (human) (UniProt P13725); assay: SPR competition, human OSM captured on immobilized M55 (competitor), sample injected at 300 nM, second chip

Sequence of human oncostatin M (OSM), in-house recombinant, mammalian-cell derived (human) (P13725 26-221 limits assumed): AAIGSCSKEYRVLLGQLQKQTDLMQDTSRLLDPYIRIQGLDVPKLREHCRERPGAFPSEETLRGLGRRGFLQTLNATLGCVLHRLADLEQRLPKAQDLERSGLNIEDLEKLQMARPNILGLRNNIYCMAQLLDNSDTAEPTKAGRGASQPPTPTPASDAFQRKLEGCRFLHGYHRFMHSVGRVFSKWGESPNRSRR

EC50, pSTAT3 inhibition in A375 cells with 5 ng/ml hOSM [1]: 72.1 ng/ml
Binding Level (RU) [2]: 2900 RU
Binding Level (RU) [3]: 1950 RU
Binding Level (RU) [4]: -80 RU
Kd [5]: 0.00185 µM
koff [5]: 0.00217 s⁻¹
kon [5]: 1.18e+06 M⁻¹ s⁻¹
KD ratio Cyno/Human [6]: 10.7
Kd [6]: 0.0198 µM
koff [6]: 0.0141 s⁻¹
kon [6]: 710000 M⁻¹ s⁻¹
Binding Level (RU) [7]: 2390 RU
Binding Level (RU) [8]: 1990 RU
Binding Level (RU) [9]: -83 RU
Binding Level (RU) [10]: 2950 RU
Substance: MAB295 (R&D Systems) (antibody)
